167 variants from the RNAGym collection of RNA variant scans (doi:10.7554/elife.80360) can be followed below.

B1: HDV Ribozyme (parent)
chain: GGCCGGCAUGGUCCCAGCCUCCUCGCUGGCGCCGGCUGGGCAACAUUCCGAGGGGACCGUCCCCUCGGUAAUGGCGAAUGGGACCCA

This data set covers variants of B1. The experiment in a line: self-cleavage, relative activity (ratio to wild type); higher = more cleavage; co-transcriptional.
As for U9C C75G, the self-cleavage was determined as 0. Then U9G A87C, with 0.969; and U9G C75G, with 0.0791. Under U9G C75A stands 0.201; under U9G C49G, 0.886.

Consider U9G C44G, for which the self-cleavage is 0.7. Then G10C C49U, with 0.89; and G10C C49A, with 0.443; and G10A A56C, with 0.78. Consider G10A A56G, for which the self-cleavage worked out at 0.695. With G10A U12C, the self-cleavage amounted to 0.188. In the case of G10C G59U, the self-cleavage is 0.815. Then G10C G40U, with 0.776.

For U9C C26U, the self-cleavage amounted to 1.17. Then G11C A43G, with 0.0536; and G11A C61U, with 0.529; and U9G C64U, with 0.86. Under U9G C64A stands 0.831; under G10U C36A, 0.067; under G11C A42C, 0.0346. Under U9C C58G stands 1.14; under G10C U65C, 0.831. As for G10A C62G, the self-cleavage stood at 0.456. Turning to U9C G29A, the self-cleavage came to 0.222. Under G10U G54A stands 0.735; under U9G U65G, 0.782; under G10U C58U, 0.982. Under G10U C58A stands 0.873. In the case of G11A C66A, the self-cleavage was found to be 0.308.

For G11A C66U, the self-cleavage was 0.431. Under G11A C66G stands 0.424; under G10A G82C, 0.231; under U9G C63A, 0.935. Under U9C A87U stands 1.06. Then G10U C84G, with 0.54; and G10C G80C, with 0.104. In the case of G10C G80U, the self-cleavage is 0.219. As for G10U C63G, the self-cleavage was 0.798. Then G10U C63U, with 0.686; and G10U C63A, with 0.845. Under G11A G55A stands 0.499; under U9C U72C, 0.485.

G11C A16U: the self-cleavage came out at 0.434. Under G11A A56G stands 0.346.

As to G10U A78U, the self-cleavage stood at 0.0554. For the variant U9C C41A, the self-cleavage worked out at 1.19.

Regarding U9G G28U, the self-cleavage is 0.151. Under G11A C86A stands 0.535; under G11A C86G, 0.306; under G10C U12C, 0.0978.

U9G C84U: the self-cleavage was 0.831. In the case of G10U U37C, the self-cleavage amounted to 0.587. Under U9G U72C stands 0.415; under U9C C33A, 0.489. Under U9C U60A stands 0.862. Under U9C U60C stands 1.11; under U9C C66U, 0.919; under U9C C30U, 0.636. As to G10A G54A, the self-cleavage is 0.591. U9G G53A: the self-cleavage was found to be 1.03.

U9G G53U: the self-cleavage is 1.1. U9C C61G: the self-cleavage amounted to 0.755.

For the variant U9G A16U, the self-cleavage came out at 1.14. Under U9G C13A stands 0.831. Then G10C C64A, with 0.504. Then G10C C64U, with 0.892. As to G10C C64G, the self-cleavage stood at 0.997. Then G10U C19G, with 0.1; and G10A U20G, with 0.0791. Then G10U C57U, with 0.855. Under U9G G80C stands 0.246; under U9G U20G, 0. For G10A U65A, the self-cleavage turned out to be 0.831.

U9C C64G: the self-cleavage was determined as 0.95. Under G10U G59A stands 0.636; under G11A G31U, 0.0475; under U9C U12C, 0.119.

On to U9C U12G, for which the self-cleavage stood at 1.07. U9C U12A: the self-cleavage amounted to 0.511. Under U9G C32G stands 0.317; under G10C C26U, 0.997.

Take G11A C63A: the self-cleavage worked out at 0.345.

With G11A C63G, the self-cleavage turned out to be 0.514. Then U9G G81U, with 0.437; and G10A C75G, with 0.086.

On to G11A U47A, for which the self-cleavage came to 0.249. Then U9C C57G, with 1.17; and G11A C19G, with 0.0231; and G11A C19U, with 0.073.

Take G10U C30A: the self-cleavage amounted to 0.158. With G10C C57G, the self-cleavage turned out to be 0.81.

Turning to G11C A78U, the self-cleavage worked out at 0.0437. Under G11C A78G stands 0.229. Then U9C G68C, with 0.89; and G11A G28U, with 0.0339. Under U9G C41G stands 0.831. Consider U9G C21U, for which the self-cleavage came to 0.332. U9G C21A: the self-cleavage was determined as 0.123. Under U9C G38U stands 0.486. Then U9C G38A, with 0.123.

Turning to G10A U27G, the self-cleavage is 0.98.

Take G10A U27A: the self-cleavage came to 0.587. Then U9C G67A, with 1.12. Then G11A A83G, with 0.0831; and G11A A83U, with 0.203.

For the variant U9C C14G, the self-cleavage is 0.208. Then G10U C18A, with 0.0175; and U9C G31A, with 0.269. Under U9C G31U stands 0.399; under U9G A42G, 0.727. G10A G38U: the self-cleavage was 0.0923. Under G10U G11A stands 0.267; under G10C C13U, 0.119; under G10U C64U, 0.748. For G10U C64A, the self-cleavage came to 0.513. Under G10U G76U stands 1.14. G10A G39A: the self-cleavage was determined as 0.321. Under G10A C18A stands 0.0567. For G10A C18G, the self-cleavage was determined as 0.0817. In the case of G10A C18U, the self-cleavage was 0.138. In the case of U9C U79C, the self-cleavage is 0.499.

With U9G C22U, the self-cleavage was determined as 0.44. Under U9G C22A stands 0.314; under G11A C64A, 0.475; under U9G G40C, 0.437. Then U9G G40A, with 1.29. Under G10C G11U stands 0.185; under U9C U23C, 1.06; under U9G U12C, 0.923. For the variant G11A G68C, the self-cleavage was 0.256.

On to G10C G52U, for which the self-cleavage stood at 1.03.

With G10C G52A, the self-cleavage amounted to 0.746.

For the variant U9G G50A, the self-cleavage was determined as 1.18. Under G10U G81C stands 0.101; under G10U G81U, 0.0791. Under U9G U60G stands 0.875. Under G10U G28C stands 0.0941.

As for G10U G28U, the self-cleavage amounted to 0.109. Under U9G G11A stands 0.346; under G10U G31A, 0.29.

G10A U72C: the self-cleavage was found to be 0.175. Then G10A U72G, with 0.378; and U9C G50A, with 0.877.

Turning to U9G G59C, the self-cleavage worked out at 1.06. As for U9C C32G, the self-cleavage came out at 0. With G11A G82C, the self-cleavage amounted to 0.0739. Under G10A C41A stands 0.604; under U9G C58A, 1.42. Then G10C A51C, with 0.665. Under G10C G25A stands 0.308; under U9G G54A, 0.95. As to U9G G54C, the self-cleavage came out at 0.831.

For U9G G82A, the self-cleavage amounted to 0.739. As for G10U G29C, the self-cleavage was 0.0615. Under G10U G29A stands 0.0536; under U9C C84A, 0.65. Then U9C C84G, with 0.489. Then U9C G35C, with 0.519; and G10C G73A, with 0.396; and G10C G73U, with 0.177. Take G11A U46C: the self-cleavage was found to be 0.166. Then G10A A70G, with 0.801.

For the variant G10A A70C, the self-cleavage turned out to be 0.48. Then U9C A77G, with 1.05. Under G10C A83G stands 0.578; under G10U C75G, 0.0563; under G10A U79G, 0.232.
